Sequences and labels used below:
B1: pro-cathepsin D (enzyme)
chain: not shown
modifications: fluorescently labelled in the MST assay (dye and site not stated)
B2: full-length progranulin (natural protein, human, UniProt P28799 18-593, looked up)
chain: TRCPDGQFCPVACCLDPGGASYSCCRPLLDKWPTTLSRHLGGPCQVDAHCSAGHSCIFTVSGTSSCCPFPEAVACGDGHHCCPRGFHCSADGRSCFQRSGNNSVGAIQCPDSQFECPDFSTCCVMVDGSWGCCPMPQASCCEDRVHCCPHGAFCDLVHTRCITPTGTHPLAKKLPAQRTNRAVALSSSVMCPDARSRCPDGSTCCELPSGKYGCCPMPNATCCSDHLHCCPQDTVCDLIQSKCLSKENATTDLLTKLPAHTVGDVKCDMEVSCPDGYTCCRLQSGAWGCCPFTQAVCCEDHIHCCPAGFTCDTQKGTCEQGPHQVPWMEKAPAHLSLPDPQALKRDVPCDNVSSCPSSDTCCQLTSGEWGCCPIPEAVCCSDHQHCCPQGYTCVAEGQCQRGSEIVAGLEKMPARRASLSHPRDIGCDQHTSCPVGQTCCPSLGGSWACCQLPHAVCCEDRQHCCPAGYTCNVKARSCEKEVVSAQPATFLARSPHVGVKDVECGEGHFCHDNQTCCRDNRQGWACCPYRQGVCCADRRHCCPAGFRCAARGTKCLRREAPRWDAPLRDPALRQLL

The data set “full-length progranulin” addresses B2. The experiment in a line: MST.
The target of the data set “pro-cathepsin D” is B1. The experiment in a line: cell-based or functional assay.

The source of these data is paper PMC6666309 (Biochemistry, 2019).

pro-cathepsin D, sequence (P07339 21-412): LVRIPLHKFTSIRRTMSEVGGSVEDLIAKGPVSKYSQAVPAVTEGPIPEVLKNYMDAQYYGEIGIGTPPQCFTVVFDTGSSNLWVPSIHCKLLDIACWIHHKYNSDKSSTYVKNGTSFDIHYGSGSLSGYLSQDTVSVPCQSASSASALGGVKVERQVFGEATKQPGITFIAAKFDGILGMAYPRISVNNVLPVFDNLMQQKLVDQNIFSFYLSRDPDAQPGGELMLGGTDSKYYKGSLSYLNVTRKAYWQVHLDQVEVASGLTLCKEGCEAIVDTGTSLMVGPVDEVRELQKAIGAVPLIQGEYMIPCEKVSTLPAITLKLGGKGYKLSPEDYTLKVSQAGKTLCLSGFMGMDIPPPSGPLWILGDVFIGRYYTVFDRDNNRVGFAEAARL

For B1, in the data set with full-length progranulin, binding was put at a Kd of 950 nM. This lies in the sub-micromolar range.
As for B2, in the data set with pro-cathepsin D, the “DSF - ΔTm of proCTSD (1 μM proCTSD with 2 μM PGRN, pH 7.4)” value was -0.41 °C.

Usually Kd stands for the concentration at which binding is half-saturated. High values mean lower affinity, low ones higher affinity.
